Biological target: p38α (UniProt P47811)
Test: ITC
Settings: reference: native TAB1 (1-438); sites S423

TAB1 1-438 (from UniProt Q8CF89) pS423TAB1 (1-438), genetically encoded phosphoserine
binding against the reference: same

— publication PMC6141180
